# Test results taken from patent US20120178693A1.
# Target: CMK-inhibited FVII (human Factor VII treated with a 'Phe-Pro-Arg' peptide based chloromethylketone inhibitor) (UniProt P08709)
# Sequence of UniProt P08709 (P08709 61-466): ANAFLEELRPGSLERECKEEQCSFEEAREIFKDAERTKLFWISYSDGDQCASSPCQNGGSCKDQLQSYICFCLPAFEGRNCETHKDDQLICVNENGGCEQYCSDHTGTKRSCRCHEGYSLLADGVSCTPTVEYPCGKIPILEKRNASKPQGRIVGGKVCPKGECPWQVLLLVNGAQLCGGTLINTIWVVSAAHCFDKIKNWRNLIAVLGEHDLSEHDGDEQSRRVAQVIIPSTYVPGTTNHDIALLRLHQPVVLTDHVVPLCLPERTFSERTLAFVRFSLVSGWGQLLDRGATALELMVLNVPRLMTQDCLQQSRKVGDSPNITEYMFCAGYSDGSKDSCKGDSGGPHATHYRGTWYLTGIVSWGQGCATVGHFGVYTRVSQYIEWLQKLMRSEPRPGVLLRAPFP
substance,measurement,value
thrombin,activation of FVII by thrombin (rate of hydrolysis of the chromogenic substrate Chromozym-tPA),a low activation of FVII by thrombin was measured
